Data as given in paper PMC4914250.

Tests used:
[1] = target: WT p53 full length (His-tagged) (UniProt P04637 1-393); assay: pull-down (streptavidin beads, Western blot); DBD pull-down: streptavidin beads with biotinylated oligo, 3 h at 4 C; Figure 1A: 50 ng protein; buffer, salt and pH not in the material; ELISA per R&D kit; conditions: protein: recombinant; tags: His; label: 5' biotin; annealed to complementary oligo
WT p53 DBD = WT p53 DBD (UniProt P04637 94-293); assay: as above; conditions: protein: recombinant; label: 5' biotin; annealed to complementary oligo
Chain of WT p53 DBD (P04637 94-293): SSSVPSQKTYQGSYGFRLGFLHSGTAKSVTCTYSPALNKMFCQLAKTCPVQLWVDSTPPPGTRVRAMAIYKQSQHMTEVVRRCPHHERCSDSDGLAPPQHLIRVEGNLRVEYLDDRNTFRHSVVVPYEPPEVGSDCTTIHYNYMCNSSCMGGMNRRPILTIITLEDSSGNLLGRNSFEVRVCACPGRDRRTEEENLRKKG

Chain of WT p53 full length (His-tagged) (P04637 whole entry): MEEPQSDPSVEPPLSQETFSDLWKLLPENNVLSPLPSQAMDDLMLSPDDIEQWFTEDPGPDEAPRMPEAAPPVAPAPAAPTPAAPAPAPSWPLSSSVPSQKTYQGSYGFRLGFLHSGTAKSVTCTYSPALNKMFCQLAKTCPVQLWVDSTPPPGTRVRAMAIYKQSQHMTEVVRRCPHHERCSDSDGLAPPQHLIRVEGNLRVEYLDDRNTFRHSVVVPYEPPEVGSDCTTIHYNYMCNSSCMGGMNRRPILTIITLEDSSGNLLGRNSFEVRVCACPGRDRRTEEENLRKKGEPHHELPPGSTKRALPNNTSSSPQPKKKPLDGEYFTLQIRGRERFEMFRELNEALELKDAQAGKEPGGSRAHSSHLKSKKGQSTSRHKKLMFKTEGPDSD

B1: p53RE oligo (dsDNA)
DNA 1: CTGCTGAAGCTTCGAATTCCTAGACATGCCCAGACATGTCCTACTGCTGCTGCTGCTGCTGCTGCGAACATGTCCCAACATGTTGCTGCTGCTGCTGCTG
DNA 2: CAGCAGCAGCAGCAGCAACATGTTGGGACATGTTCGCAGCAGCAGCAGCAGCAGCAGTAGGACATGTCTGGGCATGTCTAGGAATTCGAAGCTTCAGCAG
B1: binds [1]; binds (WT p53 DBD).
